Measurements from patent US20210085770A1 (KORANEX CAPITAL, published 2021).

Molecular target: T1, recombinant SARS-CoV-2 S1 protein expressed from insect (Sf9) cells (S1-His, SinoBiological, Cat. No. … (SARS-CoV-2, UniProt P0DTC2 16-685, glycosylated by insect cells))
T1 construct: also called 51-His (as misprinted)
Experiment: ELISA, coated insect-cell S1-His, HRP-conjugated lectin 10 ug/mL

Row | Binder | mean fold increase of OD450 [fold]
1 | Maackia amurensis lectin (MAA) (other) SDELSFTINNFVPNEADLLFQGEASVSSTGVLQLTRVENGQPQKYSVGRALYAAPVRIWDNTTGSVASFSTSFTFVVKAPNPDITSDGLAFYLAPPDSQIPSGSVSKYLGLFNNSNSDSSNQIVAVELDTYFAHSYDPWDPNYRHIGIDVNGIESIKTVQWDWINGGVAFATITYLAPNKTLIASLVYPSNQTTFSVAASVDLKEILPEWVRVGFSAATGYPTEVETHDVLSWSFTSTLEANCDAATEN | 4.3
2 | Vicia villosa lectin (VVA) (other) SESTSFSFTNFNPNQENLILQEDALVNSKGTLELTKNGKPVPESLGRNCTTLASFTTSFSFVMSAPNSLDVADGLAFFLAPPDTQPQKRGGFLGLFKDRKHDISYQSVAVEFDTYSNVWDPNTTHIGIDTNTIESKKITPFDMVYGEKILFASLVFPVSQDILPEYVRVGFSATTGLNEGVVETH | 22.5
